B1: Keratin, type I cuticular Ha8 (Homo sapiens), O76015 (parent)
chain: MTSSYSSSSCPLGCTMAPGARNVSVSPIDIGCQPGAEANIAPMCLLANVAHANRVRVGSTPLGRPSLCLPPTCHTACPLPGTCHIPGNIGICGAYGENTLNGHEKETMQFLNDRLANYLEKVRQLEQENAELEATLLERSKCHESTVCPDYQSYFHTIEELQQKILCSKAENARLIVQIDNAKLAADDFRIKLESERSLRQLVEADKCGTQKLLDDATLAKADLEAQQESLKEEQLSLKSNHEQEVKILRSQLGEKLRIELDIEPTIDLNRVLGEMRAQYEAMLETNRQDVEQWFQAQSEGISLQDMSCSEELQCCQSEILELRCTVNALEVERQAQHTLKDCLQNSLCEAEDRFGTELAQMQSLISNVEEQLSEIRADLERQNQEYQVLLDVKTRLENEIATYRNLLESEDCKLPCNPCSTSPSCVTAPCAPRPSCGPCTTCGPTCGASTTGSRF
partner: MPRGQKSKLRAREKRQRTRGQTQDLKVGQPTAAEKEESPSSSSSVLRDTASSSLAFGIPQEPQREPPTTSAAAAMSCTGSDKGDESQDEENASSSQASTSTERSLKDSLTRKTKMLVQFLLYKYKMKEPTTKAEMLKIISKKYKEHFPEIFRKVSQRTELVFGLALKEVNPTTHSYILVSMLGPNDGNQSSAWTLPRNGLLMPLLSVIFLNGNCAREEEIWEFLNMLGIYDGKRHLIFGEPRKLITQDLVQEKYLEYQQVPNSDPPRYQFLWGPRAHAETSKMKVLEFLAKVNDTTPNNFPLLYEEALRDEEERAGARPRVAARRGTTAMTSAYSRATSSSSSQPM
B2: Inositol polyphosphate 5-phosphatase K (Homo sapiens), Q9BT40 (parent)
chain: MSSRKLSGPKGRRLSIHVVTWNVASAAPPLDLSDLLQLNNRNLNLDIYVIGLQELNSGIISLLSDAAFNDSWSSFLMDVLSPLSFIKVSHVRMQGILLLVFAKYQHLPYIQILSTKSTPTGLFGYWGNKGGVNICLKLYGYYVSIINCHLPPHISNNYQRLEHFDRILEMQNCEGRDIPNILDHDLIIWFGDMNFRIEDFGLHFVRESIKNRCYGGLWEKDQLSIAKKHDPLLREFQEGRLLFPPTYKFDRNSNDYDTSEKKRKPAWTDRILWRLKRQPCAGPDTPIPPASHFSLSLRGYSSHMTYGISDHKPVSGTFDLELKPLVSAPLIVLMPEDLWTVENDMMVSYSSTSDFPSSPWDWIGLYKVGLRDVNDYVSYAWVGDSKVSCSDNLNQVYIDISNIPTTEDEFLLCYYSNSLRSVVGISRPFQIPPGSLREDPLGEAQPQI
B3: Protein VAC14 homolog (Homo sapiens), Q08AM6 (parent)
chain: MNPEKDFAPLTPNIVRALNDKLYEKRKVAALEIEKLVREFVAQNNTVQIKHVIQTLSQEFALSQHPHSRKGGLIGLAACSIALGKDSGLYLKELIEPVLTCFNDADSRLRYYACEALYNIVKVARGAVLPHFNVLFDGLSKLAADPDPNVKSGSELLDRLLKDIVTESNKFDLVSFIPLLRERIYSNNQYARQFIISWILVLESVPDINLLDYLPEILDGLFQILGDNGKEIRKMCEVVLGEFLKEIKKNPSSVKFAEMANILVIHCQTTDDLIQLTAMCWMREFIQLAGRVMLPYSSGILTAVLPCLAYDDRKKSIKEVANVCNQSLMKLVTPEDDELDELRPGQRQAEPTPDDALPKQEGTASGGPDGSCDSSFSSGISVFTAASTERAPVTLHLDGIVQVLNCHLSDTAIGMMTRIAVLKWLYHLYIKTPRKMFRHTDSLFPILLQTLSDESDEVILKDLEVLAEIASSPAGQTDDPGPLDGPDLQASHSELQVPTPGRAGLLNTSGTKGLECSPSTPTMNSYFYKFMINLLKRFSSERKLLEVRGPFIIRQLCLLLNAENIFHSMADILLREEDLKFASTMVHALNTILLTSTELFQLRNQLKDLKTLESQNLFCCLYRSWCHNPVTTVSLCFLTQNYRHAYDLIQKFGDLEVTVDFLAEVDKLVQLIECPIFTYLRLQLLDVKNNPYLIKALYGLLMLLPQSSAFQLLSHRLQCVPNPELLQTEDSLKAAPKSQKADSPSIDYAELLQHFEKVQNKHLEVRHQRSGRGDHLDRRVVL
partner: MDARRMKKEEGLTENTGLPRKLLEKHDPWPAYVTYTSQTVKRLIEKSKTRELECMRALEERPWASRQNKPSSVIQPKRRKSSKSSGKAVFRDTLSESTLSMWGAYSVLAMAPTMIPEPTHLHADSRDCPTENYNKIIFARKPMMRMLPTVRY
B4: Ligand of Numb protein X 2 (Homo sapiens), Q8N448 (parent)
chain: MGTTSDEMVSVEQTSSSSLNPLCFECGQQHWTRENHLYNYQNEVDDDLVCHICLQPLLQPLDTPCGHTFCYKCLRNFLQEKDFCPLDRKRLHFKLCKKSSILVHKLLDKLLVLCPFSSVCKDVMQRCDLEAHLKNRCPGASHRRVALERRKTSRTQAEIENENGPTLLDPAGTLSPEADCLGTGAVPVERHLTSASLSTWSEEPGLDNPAFEESAGADTTQQPLSLPEGEITTIEIHRSNPYIQLGISIVGGNETPLINIVIQEVYRDGVIARDGRLLAGDQILQVNNYNISNVSHNYARAVLSQPCNTLHLTVLRERRFGNRAHNHSDSNSPREEIFQVALHKRDSGEQLGIKLVRRTDEPGVFILDLLEGGLAAQDGRLSSNDRVLAINGHDLKYGTPELAAQIIQASGERVNLTIARPGKPQPGNTIREAGNHSSSSQHHTPPPYYSRPSSHKDLTQCVTCQEKHITVKKEPHESLGMTVAGGRGSKSGELPIFVTSVPPHGCLARDGRIKRGDVLLNINGIDLTNLSHSEAVAMLKASAASPAVALKALEVQIVEEATQNAEEQPSTFSENEYDASWSPSWVMWLGLPSTLHSCHDIVLRRSYLGSWGFSIVGGYEENHTNQPFFIKTIVLGTPAYYDGRLKCGDMIVAVNGLSTVGMSHSALVPMLKEQRNKVTLTVICWPGSLV
partner: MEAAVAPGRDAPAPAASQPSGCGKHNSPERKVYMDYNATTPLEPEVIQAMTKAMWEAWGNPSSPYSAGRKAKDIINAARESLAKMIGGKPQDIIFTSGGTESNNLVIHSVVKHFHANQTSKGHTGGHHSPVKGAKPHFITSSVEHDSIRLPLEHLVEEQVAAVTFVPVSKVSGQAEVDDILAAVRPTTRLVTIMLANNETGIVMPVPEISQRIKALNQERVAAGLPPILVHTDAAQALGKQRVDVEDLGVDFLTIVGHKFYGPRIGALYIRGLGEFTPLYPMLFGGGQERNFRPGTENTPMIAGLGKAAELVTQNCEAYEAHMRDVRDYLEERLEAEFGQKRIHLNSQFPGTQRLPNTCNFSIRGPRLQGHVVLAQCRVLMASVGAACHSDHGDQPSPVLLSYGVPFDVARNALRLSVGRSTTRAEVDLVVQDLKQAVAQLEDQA
B5: Glutaredoxin-3 (Homo sapiens), O76003 (parent)
chain: MAAGAAEAAVAAVEEVGSAGQFEELLRLKAKSLLVVHFWAPWAPQCAQMNEVMAELAKELPQVSFVKLEAEGVPEVSEKYEISSVPTFLFFKNSQKIDRLDGAHAPELTKKVQRHASSGSFLPSANEHLKEDLNLRLKKLTHAAPCMLFMKGTPQEPRCGFSKQMVEILHKHNIQFSSFDIFSDEEVRQGLKAYSSWPTYPQLYVSGELIGGLDIIKELEASEELDTICPKAPKLEERLKVLTNKASVMLFMKGNKQEAKCGFSKQILEILNSTGVEYETFDILEDEEVRQGLKAYSNWPTYPQLYVKGELVGGLDIVKELKENGELLPILRGEN
partner: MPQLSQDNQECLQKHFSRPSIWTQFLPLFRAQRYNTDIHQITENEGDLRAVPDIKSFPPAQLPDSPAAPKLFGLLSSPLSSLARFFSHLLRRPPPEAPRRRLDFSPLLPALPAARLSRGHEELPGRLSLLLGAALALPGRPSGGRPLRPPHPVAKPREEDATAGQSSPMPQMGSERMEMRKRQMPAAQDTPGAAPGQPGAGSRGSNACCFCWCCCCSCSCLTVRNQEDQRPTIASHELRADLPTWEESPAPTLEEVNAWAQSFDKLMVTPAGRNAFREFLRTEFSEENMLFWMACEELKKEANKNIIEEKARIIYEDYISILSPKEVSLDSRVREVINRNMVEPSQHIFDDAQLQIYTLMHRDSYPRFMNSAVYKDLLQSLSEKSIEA
B6: Myotubularin-related protein 9 (Homo sapiens), Q96QG7 (parent)
chain: MEFAELIKTPRVDNVVLHRPFYPAVEGTLCLTGHHLILSSRQDNTEELWLLHSNIDAIDKRFVGSLGTIIIKCKDFRIIQLDIPGMEECLNIASSIEALSTLDSITLMYPFFYRPMFEVIEDGWHSFLPEQEFELYSSATSEWRLSYVNKEFAVCPSYPPIVTVPKSIDDEALRKVATFRHGGRFPVLSYYHKKNGMVIMRSGQPLTGTNGRRCKEDEKLINATLRAGKRGYIIDTRSLNVAQQTRAKGGGFEQEAHYPQWRRIHKSIERYHILQESLIKLVEACNDQTHNMDRWLSKLEASNWLTHIKEILTTACLAAQCIDREGASILIHGTEGTDSTLQVTSLAQIILEPRSRTIRGFEALIEREWLQAGHPFQQRCAQSAYCNTKQKWEAPVFLLFLDCVWQILRQFPCSFEFNENFLIMLFEHAYASQFGTFLGNNESERCKLKLQQKTMSLWSWVNQPSELSKFTNPLFEANNLVIWPSVAPQSLPLWEGIFLRWNRSSKYLDEAYEEMVNIIEYNKELQAKVNILRRQLAELETEDGMQESP

Variants of: B1
Conditions: with magb4_human MAGEB4, O15481

Row | Variant | effect of a mutation on the interaction
1 | D306A | with no effect

Variants of: B2
Conditions: with ar6p1_human ARL6IP1, Q15041
Chain of ar6p1_human ARL6IP1, Q15041 (Q15041 whole entry): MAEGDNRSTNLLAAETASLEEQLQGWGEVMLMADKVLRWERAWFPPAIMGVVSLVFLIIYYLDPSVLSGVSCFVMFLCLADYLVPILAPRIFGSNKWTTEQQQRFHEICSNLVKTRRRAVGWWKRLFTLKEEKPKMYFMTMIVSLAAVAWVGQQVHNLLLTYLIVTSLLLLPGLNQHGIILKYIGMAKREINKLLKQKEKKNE

Row | Variant | effect of a mutation on the interaction
2 | R437K | with no effect

Variants of: B3
Conditions: with cdrt4_human CDRT4, Q8N9R6

Row | Variant | effect of a mutation on the interaction
3 | A127S | with no effect

Variants of: B4
Conditions: with scly_human SCLY

Row | Variant | effect of a mutation on the interaction
4 | P669A | with no effect

Variants of: B5
Conditions: with rgs20_human RGS20, O76081

Row | Variant | effect of a mutation on the interaction
5 | P145A | with no effect

Variants of: B6
Conditions: with emil1_human EMILIN1, Q9Y6C2
Chain of emil1_human EMILIN1, Q9Y6C2 (Q9Y6C2 whole entry): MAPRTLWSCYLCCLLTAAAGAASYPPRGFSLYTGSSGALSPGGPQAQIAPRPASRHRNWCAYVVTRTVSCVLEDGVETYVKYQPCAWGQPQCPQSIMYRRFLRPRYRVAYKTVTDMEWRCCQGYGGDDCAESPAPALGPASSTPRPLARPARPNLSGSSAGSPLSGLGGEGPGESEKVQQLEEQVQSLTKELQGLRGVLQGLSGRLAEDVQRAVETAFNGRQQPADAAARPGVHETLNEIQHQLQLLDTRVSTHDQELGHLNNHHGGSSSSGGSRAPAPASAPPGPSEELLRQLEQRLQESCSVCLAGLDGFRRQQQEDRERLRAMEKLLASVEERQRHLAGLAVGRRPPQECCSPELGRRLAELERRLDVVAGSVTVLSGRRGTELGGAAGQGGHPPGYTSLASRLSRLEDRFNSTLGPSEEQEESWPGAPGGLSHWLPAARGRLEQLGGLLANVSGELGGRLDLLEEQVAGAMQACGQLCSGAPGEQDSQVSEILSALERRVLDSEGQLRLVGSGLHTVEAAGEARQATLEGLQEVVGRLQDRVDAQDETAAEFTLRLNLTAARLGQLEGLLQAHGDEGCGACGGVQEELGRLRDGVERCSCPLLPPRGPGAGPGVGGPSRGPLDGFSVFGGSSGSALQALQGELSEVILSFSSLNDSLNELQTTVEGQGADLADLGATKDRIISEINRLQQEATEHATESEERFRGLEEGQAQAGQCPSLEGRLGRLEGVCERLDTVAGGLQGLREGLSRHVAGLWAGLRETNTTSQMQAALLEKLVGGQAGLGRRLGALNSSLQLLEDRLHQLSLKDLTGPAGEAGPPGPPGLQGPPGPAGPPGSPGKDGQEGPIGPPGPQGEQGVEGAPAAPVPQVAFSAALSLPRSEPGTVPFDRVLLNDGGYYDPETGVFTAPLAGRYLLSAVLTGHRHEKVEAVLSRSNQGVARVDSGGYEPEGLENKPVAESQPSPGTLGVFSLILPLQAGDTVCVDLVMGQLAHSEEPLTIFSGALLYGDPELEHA

Row | Variant | effect of a mutation on the interaction
6 | R359S | with no effect

— IntAct's records for PubMed 29892012
